Numbered stars: 1 amine (or outer) side, 2 acyl side, 3 side chain; on linkers, the order of the positions; unused ones are H or OH. Bridge positions count the residues as written; N and C are the ends. Square brackets hold non-standard residues; d marks the D form. Ends that are not written are not given here. * marks the point of attachment. DM4 = maytansinoid, two hindering methyls on maytansine side, COc1cc2cc(c1Cl)N(C)C(=O)C[C@H](OC(=O)[C@H](C)N(C)C(=O)CCC(C)(C)S*)[C@]1(C)O[C@H]1[C@H](C)[C@@H]1C[C@@](O)(NC(=O)O1)[C@H](OC)/C=C/C=C(\C)C2; DM3 = maytansinoid, one hindering methyl on maytansine side, COc1cc2cc(c1Cl)N(C)C(=O)C[C@H](OC(=O)[C@H](C)N(C)C(=O)CCC(C)S*)[C@]1(C)O[C@H]1[C@H](C)[C@@H]1C[C@@](O)(NC(=O)O1)[C@H](OC)/C=C/C=C(\C)C2; disulfide linker, one methyl on bicycle side = not defined here; fluorescein = fluorescein label on the Lys side chain; unhindered disulfide linker = not defined here; 1Nal = N[C@@H](Cc1cccc2ccccc12)C(=O)O; TBMB = c1c(C[*:1])cc(C[*:3])cc1C[*:2]; disulfide linker = not defined here; Tle = CC(C)(C)[C@H](N)C(=O)O; DM1 = maytansinoid; βAla = NCCC(=O)O; Sar = CNCC(=O)O
What was measured:
[1] = biological target: human MT1-MMP hemopexin domain (residues Cys319-Gly511, N-terminally His6-tagged soluble protein) (human) (UniProt P50281); test: FP competition on human MT1-MMP hemopexin domain (footnote a: tracer 17-69-07-N040; footnote e: 17-69-07-N004)
[2] = biological target: human MT1-MMP hemopexin domain (residues Cys319-Gly511, N-terminally His6-tagged soluble protein) (human) (UniProt P50281); test: FP competition on human MT1-MMP hemopexin domain, tracer 17-69-07-N040 (footnote f)
[3] = biological target: dog MT1-MMP hemopexin domain (dog); test: FP competition, dog MT1-MMP hemopexin domain
[4] = biological target: human MT1-MMP hemopexin domain (residues Cys319-Gly511, N-terminally His6-tagged soluble protein) (human) (UniProt P50281); test: FP competition, Human/cyno MT1-MMP hemopexin domain
[5] = biological target: human MT1-MMP hemopexin domain (residues Cys319-Gly511, N-terminally His6-tagged soluble protein) (human) (UniProt P50281); test: FP competition on human MT1-MMP hemopexin domain (per paragraph 249; tracer not given)
[6] = biological target: human MT1-MMP hemopexin domain (residues Cys319-Gly511, N-terminally His6-tagged soluble protein) (human) (UniProt P50281); test: fluorescence polarisation with the fluoresceinated peptide

B1: BT17BDC-19 (peptide)
peptide: {DM4-disulfide linker}-[βAla][Sar][Sar][Sar][Sar][Sar][Sar][Sar][Sar][Sar][Sar]AC[dA]NE[1Nal][dA]CEDFYD[Tle]C
modifications: linker 13-19-26 via TBMB; reading uncertain; also: exact linker structure not given here
Binder B1 has a Kd [1] of 0.5 nM.

B2: BT17BDC-20 (peptide)
peptide: {DM3-disulfide linker, one methyl on bicycle side}-[βAla][Sar][Sar][Sar][Sar][Sar][Sar][Sar][Sar][Sar][Sar]AC[dA]NE[1Nal][dA]CEDFYD[Tle]C
modifications: linker 13-19-26 via TBMB; reading uncertain; also: exact linker structure not given here
With B2 the Kd [2] was 2.95 nM.

B3: 17-69-07-N219 (peptide)
peptide: H-G[Sar][Sar][Sar][Sar][Sar][Sar][Sar][Sar][Sar][Sar]ACYNEFGCEDFYDIC
modifications: linker 13-19-26 via TBMB; not fully specified (C-terminus)
In the case of B3, the Kd [3] is reported as 0.9 nM, the Kd [4] is reported as 0.82 nM and the Kd [5] is reported as 0.82 nM. It also gave a Kd [1] of 0.82 nM.

B4: 17-69-07-N258 (peptide)
peptide: fluorescein-[βAla][Sar][Sar][Sar][Sar][Sar][Sar][Sar][Sar][Sar][Sar]AC[dA]NE[1Nal][dA]CEDFYD[Tle]C
modifications: linker 13-19-26 via TBMB; not fully specified (C-terminus); printed as Fluorescein-(bAla)-Sar10-A-(17-69-07) D-Ala1 1Nal4 D-Ala5 tBuGlyl1
B4 was tested, and the Kd [6] was 2.2 nM.

B5: BT17BDC-18 (peptide)
peptide: {DM1-disulfide linker, one methyl on bicycle side}-[βAla][Sar][Sar][Sar][Sar][Sar][Sar][Sar][Sar][Sar][Sar]AC[dA]NE[1Nal][dA]CEDFYD[Tle]C
modifications: linker 13-19-26 via TBMB; reading uncertain; also: exact linker structure not given here
For B5, the Kd [1] was 0.99 nM.

B6: BT17BDC-17 (peptide)
peptide: {DM1-unhindered disulfide linker}-[βAla][Sar][Sar][Sar][Sar][Sar][Sar][Sar][Sar][Sar][Sar]AC[dA]NE[1Nal][dA]CEDFYD[Tle]C
modifications: linker 13-19-26 via TBMB; reading uncertain; also: exact linker structure not given here
B6 showed a Kd [1] of 0.7 nM.

B7: 17-69-07-N225 (peptide)
peptide: Ac-G[Sar][Sar][Sar][Sar][Sar][Sar][Sar][Sar][Sar][Sar]ACYNEFGCEDFYDIC
modifications: linker 13-19-26 via TBMB; not fully specified (C-terminus)
B7 was tested, and the Kd [5] was 0.95 nM.

From patent publication US12318454
